Laboratory results published in IntAct's records for PubMed 31515488.

B1: Defensin-6 (Homo sapiens), Q01524 (parent)
chain: MRTLTILTAVLLVALQAKAEPLQAEDDPLQAKAYEADAQEQRGANDQDFAVSFAEDASSSLRALGSTRAFTCHCRRSCYSTEYSYGTCTVMGINHRFCCL
B2: E3 ubiquitin-protein ligase TRIM17 (Homo sapiens), Q9Y577 (parent)
chain: MEAVELARKLQEEATCSICLDYFTDPVMTTCGHNFCRACIQLSWEKARGKKGRRKRKGSFPCPECREMSPQRNLLPNRLLTKVAEMAQQHPGLQKQDLCQEHHEPLKLFCQKDQSPICVVCRESREHRLHRVLPAEEAVQGYKLKLEEDMEYLREQITRTGNLQAREEQSLAEWQGKVKERRERIVLEFEKMNLYLVEEEQRLLQALETEEEETASRLRESVACLDRQGHSLELLLLQLEERSTQGPLQMLQDMKEPLSRKNNVSVQCPEVAPPTRPRTVCRVPGQIEVLRGFLEDVVPDATSAYPYLLLYESRQRRYLGSSPEGSGFCSKDRFVAYPCAVGQTAFSSGRHYWEVGMNITGDALWALGVCRDNVSRKDRVPKCPENGFWVVQLSKGTKYLSTFSALTPVMLMEPPSHMGIFLDFEAGEVSFYSVSDGSHLHTYSQATFPGPLQPFFCLGAPKSGQMVISTVTMWVKG
partner: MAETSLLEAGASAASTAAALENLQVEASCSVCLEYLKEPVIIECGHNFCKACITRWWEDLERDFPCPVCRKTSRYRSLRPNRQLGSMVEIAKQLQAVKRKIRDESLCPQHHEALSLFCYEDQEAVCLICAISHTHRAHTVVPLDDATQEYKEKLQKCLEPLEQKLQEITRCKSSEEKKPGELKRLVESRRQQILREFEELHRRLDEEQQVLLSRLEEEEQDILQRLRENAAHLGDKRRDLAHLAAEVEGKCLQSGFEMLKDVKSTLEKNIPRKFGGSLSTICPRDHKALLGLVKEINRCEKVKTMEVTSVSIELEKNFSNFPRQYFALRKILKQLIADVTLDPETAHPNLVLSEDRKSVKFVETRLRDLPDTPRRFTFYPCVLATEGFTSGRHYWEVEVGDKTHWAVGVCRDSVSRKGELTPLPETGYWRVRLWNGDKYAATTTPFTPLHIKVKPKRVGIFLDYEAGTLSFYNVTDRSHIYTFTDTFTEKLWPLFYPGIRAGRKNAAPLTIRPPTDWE
B3: Glutathione S-transferase omega-2 (Homo sapiens), Q9H4Y5 (parent)
chain: MSGDATRTLGKGSQPPGPVPEGLIRIYSMRFCPYSHRTRLVLKAKDIRHEVVNINLRNKPEWYYTKHPFGHIPVLETSQCQLIYESVIACEYLDDAYPGRKLFPYDPYERARQKMLLELFCKVPHLTKECLVALRCGRECTNLKAALRQEFSNLEEILEYQNTTFFGGTCISMIDYLLWPWFERLDVYGILDCVSHTPALRLWISAMKWDPTVCALLMDKSIFQGFLNLYFQNNPNAFDFGLC
B4: Protein DDI1 homolog 1 (Homo sapiens), Q8WTU0 (parent)
chain: MLITVYCVRRDLSEVTFSLQVSPDFELRNFKVLCEAESRVPVEEIQIIHMERLLIEDHCSLGSYGLKDGDIVVLLQKDNVGPRAPGRAPNQPRVDFSGIAVPGTSSSRPQHPGQQQQRTPAAQRSQGLASGEKVAGLQGLGSPALIRSMLLSNPHDLSLLKERNPPLAEALLSGSLETFSQVLMEQQREKALREQERLRLYTADPLDREAQAKIEEEIRQQNIEENMNIAIEEAPESFGQVTMLYINCKVNGHPLKAFVDSGAQMTIMSQACAERCNIMRLVDRRWAGVAKGVGTQRIIGRVHLAQIQIEGDFLQCSFSILEDQPMDMLLGLDMLRRHQCSIDLKKNVLVIGTTGTQTYFLPEGELPLCSRMVSGQDESSDKEITHSVMDSGRKEH
partner: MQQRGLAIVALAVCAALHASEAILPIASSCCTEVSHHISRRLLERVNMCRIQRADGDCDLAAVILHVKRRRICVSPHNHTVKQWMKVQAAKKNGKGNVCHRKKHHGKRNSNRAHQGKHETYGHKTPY

Variants of: B1
Conditions: with ubql1_human UBQLN1, Q9UMX0
ubql1_human UBQLN1, Q9UMX0, sequence (Q9UMX0 whole entry): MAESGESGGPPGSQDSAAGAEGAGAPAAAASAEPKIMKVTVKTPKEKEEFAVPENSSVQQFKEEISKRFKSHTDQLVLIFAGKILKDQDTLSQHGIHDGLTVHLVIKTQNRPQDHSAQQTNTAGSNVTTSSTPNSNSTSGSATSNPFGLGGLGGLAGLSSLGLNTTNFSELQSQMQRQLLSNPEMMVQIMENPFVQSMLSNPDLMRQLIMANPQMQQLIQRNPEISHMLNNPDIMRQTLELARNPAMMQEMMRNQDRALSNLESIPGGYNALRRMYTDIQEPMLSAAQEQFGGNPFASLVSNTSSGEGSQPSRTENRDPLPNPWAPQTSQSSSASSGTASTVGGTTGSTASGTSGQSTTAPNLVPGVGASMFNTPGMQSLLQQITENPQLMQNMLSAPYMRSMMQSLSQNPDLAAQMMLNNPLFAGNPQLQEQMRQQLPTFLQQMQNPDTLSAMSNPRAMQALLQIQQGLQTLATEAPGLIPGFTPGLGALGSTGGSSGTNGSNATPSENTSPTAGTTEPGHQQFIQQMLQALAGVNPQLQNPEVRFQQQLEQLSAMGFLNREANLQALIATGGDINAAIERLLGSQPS

Variant | effect of a mutation on the interaction
D46E | with no effect
E35D | with no effect

Variants of: B2
Conditions: with tri39_human TRIM39, Q9HCM9

Variant | effect of a mutation on the interaction
E173K | with no effect
T30A | disrupting interaction strength

Variants of: B3
Conditions: with ap2a_human TFAP2A

Variant | effect of a mutation on the interaction
N142D | with no effect

Variants of: B4
Conditions: with ccl28_human CCL28, Q9NRJ3

Variant | effect of a mutation on the interaction
R87C | with no effect
S63A | with no effect
G136S | with no effect

Next, values leading:

effect of a mutation on the interaction | Variant
with no effect | D323N
disrupting interaction strength | R208G
with no effect | N228T
